Substrate in the series: Nc1ncnc2c1ncn2[C@@H]1O[C@H](CO)[C@H]2OP(=O)(O)O[C@H]21
Nature of the series: phosphate release with calf intestine phosphatase, Biomol Green. The conditions noted are these: 50 mM Tris-HCl pH 8, 5 mM beta-mercaptoethanol, 10 mM NaCl, 25 °C, 1 μM SpdA. It is filed as biochemical, Sinorhizobium meliloti.

B1: SpdA (Sinorhizobium meliloti 1021) (protein)
chain: MTKLIIFSDLHMVPEGETIIGLDPYRRLANGIAHVNRYHADADRVIFAGDLTHRADRASYERLKALLGELTPPAALMIGNHDRRDVFLDVFAEATTDANGFVQQVLDFADCRAILLDTLFAPPYDYPVSHAGHLCDRRLAWLDRQLEEAGGRPALIFMHHPPHISGFAGIDMIRLVNEDDFYALVKRHGNVRHIFAGHVHRTISGSSRGIPFSIFKSPVHQQPMPFDTADASLSVDEPAAYGIALVTGDGVLVHTEDYEIARRDAVGA
notes: C-terminal His6 tag (pET-22b, NdeI-HindIII), tag kept, E. coli BL21(DE3), monomer, metal-free
The Km is the concentration of substrate that gives half-maximal velocity. In general, kcat refers to the maximal rate divided by the concentration of active sites. Consider B1, for which the Km is recorded as 3.7 mM and the kcat turned out to be 2 s⁻¹.

Source of the values: PMC4222275, “Biochemical and functional characterization of SpdA, a 2′, 3′cyclic nucleotide phosphodiesterase from Sinorhizobium meliloti” (BMC Microbiology, 2013).
